Assay: soluble on expression in E. coli; label from the status in PepcDB or PDB records

Soluble on expression in E. coli, not soluble:
MGSDKIHHHHHHMKVLNLLSAGGIGGIEQLCSNIAKYANYDNTFCFMFEDGQIYKEMKKSGADVISFAECSSKKISKKRWESLCELAEKADIIVTHHCTIALHIYYCALKKRFKNKKFVMTIHSCFDPELNYNYGSWIKNKIAKWNIEEALKISDKIIFVSEAGRRSYLDNFNIDVTKTKVIYNGVEVSAISIDSIKLENNYTRITYIGRVEKIKGLDLFVCALKKLLNDDSNIKVWIIGDGSFRNELEMLVQKLDLTGVIEFTGAKRNIGDYLRKTDLFIYPSTCQEVFGISIVEAMSYGVPCVANNVGGIPEIIENDYNGFITSKTNDDELYKCMYKFIKLDPKLITQMRNNCLLTAEKFSINCTIDNLEKTLKGMM
MGSDKIHHHHHHMKVTILLPAYNAALYLRDSLDSIMRQAFKDFDVLLIDDGSMDDTSKIAIEYSNIDRRIKYYKNEKNIGLIKTLNKGLSLAKGEYIVRMDADDIMFDDRLYKQVKYMDSNPECFVCGGQMEYIGGLTGMAPILPQKYEDLLYLSLINCPLYHPTTIIRNSAIKQFGLKYNDSYKHAEDYKFWSDIIFSHPNSIANIKDVVLFYRISNNQITAKYSDEQDLISKIVRRENVQHVLVPYGIKLPEVVNCEIIEKVSSLIRKEHIDAAEILTLVLCMLYMSMENSYVRIKHFILSNDYSLFVKNSSRIKLGLSVLLSGIFSNRGKRFVI
MGSDKIHHHHHHMKVTNYQGATIDPYSKGLGMVPGTSIQLTDAARLEWNLLNEDVSLPAAVLYADRVEHNLKWMQAFVAEYGVKLAPHGKTTMAPQLFRRQLETGAWGITLATAHQVRAAYHGGVSRVLMANQLVGRRNMMMVAELLSDPEFEFFCLVDSVEGVEQLGEFFKSVNKQLQVLLELGVPGGRTGVRDAAQRNAVLEAITRYPDTLKLAGVELYEGVLKEEHEVREFLQSAVAVTRELVEQERFARAPAVLSGAGSAWYDVVAEEFVKASETGKVEVVLRPGCYLTHDVGIYRKAQTDIFARNPVAKKMGEGLLPALQLWAYVQSIPEPDRAIIGLGKRDSAFDAGMPEPARHYRPGNEAPRDIAASEGWEIFGLMDQHAYLRIPAGADLKVGDMIAFDISHPCLTFDKWRQVLVVDPAYRVTEVIETFF
MGSDKIHHHHHHMKYALGNILYYWPKEDVEAFYQAAVNSSADIVYLGETVCSKRRLMKVADWFNVAREVANSGKQVVISTLALLQAPSELTELRRYVENGEFLLEANDLGAVNIAAERNLPFVAGHALNCYNAYTLRVLHKQGMVRWCMPVELSRDWLQNLLNQCEELGFRHQFEVEVLSYGHLPLAYSARCFTARSEDRPKDECETCCLSYPQGRKMLSQENQQVFVLNGIQTQSGYCYNLGNELTSMRDLVDIVRLSPNDITTPAMLDTFRANEQGNMPLTLQNQADCNGYWRRVAGLELVQ
MGSDKIHHHHHHMKYFVSRSIYTFNSGVEHSQANRTLLFNASGDQARYVTRDYNRLWVRDAERVNLNSTNVLNMYDFFQGTSAVECVQLPVREFKQLALNEYQLVEHGADYSTVDHAGRQLARINIMPGTVGLVGDIEYYDRFETVVSRENFDWRGFKSSIDYFHPDGSLGVRRFLNLAGEVVLENTYMNVEGQLQPTMWKLVNYHGKNYRFDTEDQLFLFFLNEVTQQTTDNVVVSDHRELDYVIADVENATSKWVALHGSHVDQGGTPFAAYSIALQIRAQDFDGIIVPTQEQQLELKEQFPELNVQVAPDVAISPELINSKPVWLRDRIAGRIIFSGRLEADKRPMEALKAFFKVLEQFLTLRWNLGDILTTKTC
MGSDKIHHHHHHMKYRFENHCVDKQCNLHIFADGKAAHSSTPEDGVNAVTHLAALLSPELNDKPWPKTSASLTVAAMNELVGLGIYAEQFGDLAYKDDFMGPLTLAPTVVVQTQKGTEVTINLRRPVGKTPELLAKQAREALALWQDKHQVQLADIESYWGEPMVMKGAPQQQTLLDVFAHFTGIVDPKPVAIGGSTNSKLFPNALSFGPAMPGVEYTGHTEKEFITHKQFMLNLKMYTAAFIELSAVK
MGSDKIHHHHHHMKYTYREAGVDVERGESFAKTIKSAVKLPEWVMKEPTGYASILTITTPPVVVTADGIGTKLILHRKHGTWRYAAEDLVGMNYNDLVCVGARPVAFLDYLGVERISEEHESFIKELVNVLDSVDVKLVGGETAEMPDVYRGDWDAVGFAVGVLEKRIPVDKIKEGDVIVGIPSSGFHSNGWSLIRRIIKEESIKIEELPFELLKGTRIYREVIELFDLVKGIAHVTGGGVVRALKRVLGKLGAHVSLPKRDFVDWILKYVDFNEAVNTFNMGVGMFLIVEKQKVDEVLARVDGTVVGKVSSDWRIEYGGEGG
MGSDKIHHHHHHMLATYLKSLNENDRSLYNEGEDVIQGLIQSPKTLPPKYFYDDYGSELFEQICELSEYYPTRTEAWILRQYADEIAQITGNCELVELGSGSSTKTLFLLDAYQKIASHCRYIPIDVSHGILKSSVLKLQQKYPNFFVEGLIGTYEQALIKLESTFAASRMIFFLGSSLGNFNPRECDDFLRQITRTLQAGDYFLLGIDLQKPKEILEPAYNDSQGVTAAFNLNILSHLNWRFQGNFDLSLFTHQAIYNENDAQIEMYLHCQKSHEVSLEALDLQVSFAGGESILTEISRKFDLVNMQKQLETHGLKTLKTWTDPNQWFGLILCQA
MGSDKIHHHHHHMLDKIELFILDMDGTFYLDDSLLPGSLEFLETLKEKNKRFVFFTNNSSLGAQDYVRKLRNMGVDVPDDAVVTSGEITAEHMLKRFGRCRIFLLGTPQLKKVFEAYGHVIDEENPDFVVLGFDKTLTYERLKKACILLRKGKFYIATHPDINCPSKEGPVPDAGSIMAAIEASTGRKPDLIAGKPNPLVVDVISEKFGVPKERMAMVGDRLYTDVKLGKNAGIVSILVLTGETTPEDLERAETKPDFVFKNLGELAKAVQ
MGSDKIHHHHHHMLDPAGARVQIAKGRRDAADEPEDEDQMTRLEAFGDRKFPAAELILSSEGRGWDGIGTQVRRHPAGEIPVPVPDQMEVTLAIAGSQTGRVERRSGSAFQNTTARPGTLWFCPIGVTEDSIRITETLPMVQHVFLAKSQFDSLSELSSRSLSPASIAYLADVNDELVRQICQRIYREAQEETSSGKILIDCLAQSLVAHLVSDYSHDSRIHLGPDSGPSKLDDARLRRVLDYIYGNIDQDLSLSKLSEVACLSKHHFARAFREATGTPPYRFISERRLDHALNLLKDSRLSLAEIAYICRFSSQATFTRAFRRHVGTSPGEYRHLSRT
MGSDKIHHHHHHMLDVVANQDKSIVVKQLRYGRDNEVLVVDEWQLHPAEHWAIFATDSYCGSLLGRILTGDIQPDEGTIAGLPQRIGWVSLGLQQVLLERELEKDELDYGSSVEFLVLECCQDAAQLAPLLQKVGLEPLRLRGFRQLSTGETRRVMLARALAMLPQLLILDDPYAGLDVEHQASLSELLSEVAEHTQLLIITSRQEELPPCISHVALFNGEMLKSGQSVHKLSQPMSIEQWHNHPVMAQLNALSAQRSNELLALMERQRHNAEAFDPLVEIKNGKVEYVSGLIFSGVNWRIEAGQHWQVRGPNGCGKSTLLGLILGDHPQCYSNDITLFGRPRGSGESIWQIKQRIGIVSSALHLQYRVSCSVLDVLLSGFFDSIGLYQKPTKPQLDLAKEWLAILHMTGLASTSFKKLDYGQQRLLLIGRALIKQPLLLILDEPYQGLDFINRTLVMRALKMIAEHHLSQLLYVSHHREDALPAIHHFVDFIKQGDGYSVQVSDSESKD
MGSDKIHHHHHHMLITNVRPWGGDNVDLEVHEGRIAAVHPAGTGDVSADAAGGTIDGRGRIAFPAFTDVHVHLDSTRIGLPFREHTASPGVWNMMCNDRENWRDTPIPYADVVAGTLERMIARGTTRVRSYAQIDVDCKLERFEAVLAAKERFAHAAEVEVMAFPQAGLLLEDGTVPLLEEALRAGATTIGGIDPCQLDRDPARHLDIVFELAEKYGVDVDIHLHEPGHLGVFSAELIFERTRALGMQGRVSLSHAYDLANVHPDVTARIVEQMAELDVAWATVAPASGGAQFDLARMTEAGIRVGLGEDGQRDYWSPYGNCDMLDRTWQLAFTHRLRKDRLIEHCAAIATVGGASIMDRTVPRLTSPDDRPGLTPGDRADVVLVDGETVTSTVMDRGTDRTVIHDGRLVADGLAVLPRAAG
MGSDKIHHHHHHMLLKSPDKSPEKILKLFDEVYSKARIFYLLRTAIDLNLFEYLSSFKTAKELAEILDADLILMEYMLKILNELDLIESKVVSERIYYKNAEITNIYLKKDSNYSIINPIYSYFENIKNWENLADILKNKSNCSNMDVDNFFPKVVRRMADECKCWELQKVLNYMAKYEEFKNAKKLLDLAGGHGLYAIGFSMLNRNLKCYVFDLPNVIEETKKFIKKYNAKNVFTITGDFYKDDIGKGYDIIFCSYNPGGKNPKIAEKVYNALNEGGLFINKQFFPDKEEGIEDYINNMEWNFSKPEGLKKGKIRYTFEGDLNLNDYLKYLEDLGFKILEVVDMSELLGLDENSSSFRKSANPSDSLRFKDNSPAKMIVAKKL
MGSDKIHHHHHHMLLNVKQDFCLAGPGYLLNHSVGRPLKSTEQALKQAFFAPWQESGREPWGQWLGVIDNFTAALASLFNGQPQDFCPQVNLSSALTKIVMSLDRLTRDLTRNGGAVVLMSEIDFPSMGFALKKALPASCELRFIPKSLDVTDPNVWDAHICDDVDLVFVSHAYSNTGQQAPLAQIISLARERGCLSLVDVAQSAGILPLDLAKLQPDFMIGSSVKWLCSGPGAAYLWVNPAILPECQPQDVGWFSHENPFEFDIHDFRYHPTALRFWGGTPSIAPYAIAAHSIEYFANIGSQVMREHNLQLMEPVVQALDNELVSPQEVDKRSGTIILQFGERQPQILAALAAANISVDTRSLGIRVSPHIYNDEADIARLLGVIKANR
MGSDKIHHHHHHMLLRKAFKFEIRPNGEQIRKIKQFCGCSRFVFNRALAWQNEQYEQDNNQKFSYSKLTSLLPQWKKELIWLKECHSQVLQQSLKDLESAFKNFFQQRADFPKFKKKGIKESFRFPQGCKIQPQNDRLYLPKIGWVRYRNSREIVGEVKNVTVSQKCGRFFVSIQTEFEHEIPMHKGGEIGIDMGIARFATLSNGEFFEPINAFKTYKGKLAKLQKQLKNKVKFSKNWQKLKEKIGKLHHKIANCRKDFLHKISTQISKNHAMIYVEDLQVANMSKSAKGTVEAHGKNVKQKSGLNRSIRDQSWFEFRRQLDYKTQWLGGFLVAVPAQNTSRTCPCCGHIAKENRETQAHFECVECGYTENADVVGAMNVLTRGQAIVQA
MGSDKIHHHHHHMLMNIGKVDNIKIYTLAEDYAGYNSPFWSQHGLSFLIEVESNGIKKRILFDTATYAEPILFNMKLLNINPKSIDMIILSHNHFDHTGGLFGIMKEINKEIPIFAHPNIFKVSFATEPEFMLAGTLNKTLKEDIEKLGGRWVLSRDPIRLMPGIFTLGEIEDEEKINFEKKPTIGLYKLENGRVVLDNVEDEIGLAIVTEKGLIIVSGCSHPGIVSMVKKSIKISGINKVYAVIGGFHLIDADNERIVSTIKALKKLGVKKICTGHCTGFKAENMFMEEFKEDFERLHAGKIIKF
MGSDKIHHHHHHMLQTLQKDAIELLKTLIKTESFSKEEHNTAEILNTFLVERGVETIREKNNVWAFNKHFDKNKPTILLNSHHDTVKPNPGYTNDPFEPIVKDGKLFGLGSNDAGGCLVSLIATFLHFYNETNLKYNFCIAATAEEEISGFDGLELVYPKLGPIDFAIVGEPTLMDIAVAEKGLMVVDCVAIGKAGHAAREEGENAIYIALKDIEWIRNYKFERVSPHLGPMKMSVTIINAGYQHNVVPEKCHFTIDVRITEEYKNEEVLKIIDDNIQSEVNPRSVRLRPSFIDPNHELVHAAIKHGAKTYGSPTTSDQALIPVPSVKMGPGNSARSHTANEFIWLIEIEEGIEKYIKVLSEIVLA

From the DeepSol protein solubility set
